Stoichiometry N data for three substances are collected here from article PMC6173736.

Holding throughout (test): SEC; HPLC-SEC on a bioZen 1.8 µm SEC-3 column in 150 mM KPi, pH 6.8; absorbance at 280 nm and 655 nm; samples after clicking with BCN-649, in vitro phosphopantetheinylation and purification over Ni-NTA magnetic beads
Experiment [1] deals with full-length mFAS mutant Gly2113AzPhe (mouse) (UniProt P19096).
The target of experiment [2] is full-length mFAS mutant Gly2113AzPhe with additional ACP knock-out mutation Ser2150Ala (mouse) (UniProt P19096).
The target of experiment [3] is murine fatty acid synthase type I, wild type, full-length (mouse) (UniProt P19096). To be noted: remark: other sources report otherwise.

full-length mFAS mutant Gly2113AzPhe with additional ACP knock-out mutation Ser2150Ala, sequence (P19096 1-2112, change not shown): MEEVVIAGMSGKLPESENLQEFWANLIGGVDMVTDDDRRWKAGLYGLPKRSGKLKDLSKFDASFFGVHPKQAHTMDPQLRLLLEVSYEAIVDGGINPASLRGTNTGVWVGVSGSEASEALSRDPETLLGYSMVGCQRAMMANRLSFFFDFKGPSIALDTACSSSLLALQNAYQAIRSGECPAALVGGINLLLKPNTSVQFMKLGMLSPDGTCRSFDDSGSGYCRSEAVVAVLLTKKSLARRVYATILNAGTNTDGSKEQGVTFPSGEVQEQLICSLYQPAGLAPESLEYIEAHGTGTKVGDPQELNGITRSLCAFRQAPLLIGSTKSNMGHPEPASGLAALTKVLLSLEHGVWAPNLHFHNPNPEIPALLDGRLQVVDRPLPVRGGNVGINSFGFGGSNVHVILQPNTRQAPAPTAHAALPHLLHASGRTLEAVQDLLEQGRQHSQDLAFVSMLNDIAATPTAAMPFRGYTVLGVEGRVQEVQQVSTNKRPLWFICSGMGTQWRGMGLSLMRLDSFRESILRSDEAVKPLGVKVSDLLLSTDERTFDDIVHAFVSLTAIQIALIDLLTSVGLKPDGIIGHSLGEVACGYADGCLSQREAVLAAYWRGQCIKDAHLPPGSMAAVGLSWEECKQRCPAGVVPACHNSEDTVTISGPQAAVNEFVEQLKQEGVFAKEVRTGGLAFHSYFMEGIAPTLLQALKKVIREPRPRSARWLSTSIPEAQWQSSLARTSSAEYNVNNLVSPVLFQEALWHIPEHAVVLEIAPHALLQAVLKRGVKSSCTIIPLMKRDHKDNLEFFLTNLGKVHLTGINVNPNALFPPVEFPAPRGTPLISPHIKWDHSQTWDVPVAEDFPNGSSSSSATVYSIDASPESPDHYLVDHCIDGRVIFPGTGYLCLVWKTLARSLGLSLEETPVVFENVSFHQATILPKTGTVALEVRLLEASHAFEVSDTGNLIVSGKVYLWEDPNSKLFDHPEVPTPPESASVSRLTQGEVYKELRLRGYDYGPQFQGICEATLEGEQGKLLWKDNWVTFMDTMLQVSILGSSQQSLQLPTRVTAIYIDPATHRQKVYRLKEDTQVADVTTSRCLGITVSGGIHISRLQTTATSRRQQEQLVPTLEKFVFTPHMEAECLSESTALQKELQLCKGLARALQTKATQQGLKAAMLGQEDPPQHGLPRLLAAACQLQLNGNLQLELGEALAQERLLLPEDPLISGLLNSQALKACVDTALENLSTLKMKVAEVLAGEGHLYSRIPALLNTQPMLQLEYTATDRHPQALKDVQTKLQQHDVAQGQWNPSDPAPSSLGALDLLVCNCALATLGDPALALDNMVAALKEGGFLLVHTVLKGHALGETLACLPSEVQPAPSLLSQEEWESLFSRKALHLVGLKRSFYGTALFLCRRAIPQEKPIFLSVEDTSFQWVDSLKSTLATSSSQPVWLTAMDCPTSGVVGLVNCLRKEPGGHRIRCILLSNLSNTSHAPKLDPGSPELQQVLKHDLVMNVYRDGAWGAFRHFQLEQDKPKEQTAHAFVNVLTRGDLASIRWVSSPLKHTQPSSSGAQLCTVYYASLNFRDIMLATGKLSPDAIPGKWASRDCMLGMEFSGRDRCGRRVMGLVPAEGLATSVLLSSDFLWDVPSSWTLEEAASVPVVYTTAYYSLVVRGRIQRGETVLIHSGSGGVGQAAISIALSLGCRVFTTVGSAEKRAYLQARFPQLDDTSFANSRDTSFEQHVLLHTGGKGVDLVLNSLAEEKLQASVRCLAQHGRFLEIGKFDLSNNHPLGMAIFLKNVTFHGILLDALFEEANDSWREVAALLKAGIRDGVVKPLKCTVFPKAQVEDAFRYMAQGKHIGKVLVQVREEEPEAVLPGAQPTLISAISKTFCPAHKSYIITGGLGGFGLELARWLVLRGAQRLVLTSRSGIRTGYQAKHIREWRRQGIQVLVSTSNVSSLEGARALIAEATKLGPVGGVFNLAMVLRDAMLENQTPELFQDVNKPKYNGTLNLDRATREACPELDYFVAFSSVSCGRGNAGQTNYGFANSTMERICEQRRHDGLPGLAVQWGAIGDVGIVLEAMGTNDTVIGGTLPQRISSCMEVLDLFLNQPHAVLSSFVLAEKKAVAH

Take “full-length mFAS mutant Gly2113AzPhe (from UniProt P19096 1-2504) (enzyme)”: in experiment [1], the stoichiometry N (as a rule, a count of units in the complex or per binding partner) was 2.

“full-length mFAS mutant Gly2113AzPhe with additional ACP knock-out mutation Ser2150Ala (from UniProt P19096 1-2504) (enzyme)” showed a stoichiometry N in experiment [2] of 2.

As to “murine fatty acid synthase type I, wild type, full-length, P19096 1-2504”, in experiment [3], the stoichiometry N is 2.
